Measured values: the supplement of paper PMC7125110
± gives the standard error. This sample holds only a part of the variants without activity.

B1: glmS ribozyme (parent)
chain: AUAAAAGCGCCAGAACUACAGAAAUGUAGUUGACGAGGAGGAGGUUUAUCGAAUUUUCGGCGGAUGCCUCCAAA

What was measured:
Conditions in all cases: with glucosamine-6-phosphate
glucosamine-6-phosphate [1] = variants of: B1; experiment: self-cleavage kobs at 40 uM GlcN6P; higher = faster cleavage; RNA array
Procedure, shortened: (§1)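 Barcoded ribozyme variants, transcribed in situ by E. coli RNA polymerase on sequenced MiSeq chips, were followed via a hybridised Cy3 probe at 37 °C. Glucosamine-6-phosphate ranged from 40 μM to 10 mM in HEPES/KCl/Mg(OAc)2 buffer. kobs came from decay fits to per-tile medians, and kcat and KM from weighted Michaelis–Menten fits.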

glucosamine-6-phosphate [2] = variants of: B1; experiment: self-cleavage kobs at 10000 uM GlcN6P; higher = faster cleavage; RNA array
Procedure, shortened: as §1

glucosamine-6-phosphate [3] = variants of: B1; experiment: self-cleavage kobs at 640 uM GlcN6P; higher = faster cleavage; RNA array
Procedure, shortened: as §1

glucosamine-6-phosphate [4] = variants of: B1; experiment: self-cleavage kobs at 2500 uM GlcN6P; higher = faster cleavage; RNA array
Procedure, shortened: as §1

glucosamine-6-phosphate [5] = variants of: B1; experiment: self-cleavage kobs at 160 uM GlcN6P; higher = faster cleavage; RNA array
Procedure, shortened: as §1

| Variant | self-cleavage kobs at 40 uM GlcN6P (glucosamine-6-phosphate [1]) [s⁻¹] | self-cleavage kobs at 10000 uM GlcN6P (glucosamine-6-phosphate [2]) [s⁻¹] | self-cleavage kobs at 640 uM GlcN6P (glucosamine-6-phosphate [3]) [s⁻¹] | self-cleavage kobs at 2500 uM GlcN6P (glucosamine-6-phosphate [4]) [s⁻¹] | self-cleavage kobs at 160 uM GlcN6P (glucosamine-6-phosphate [5]) [s⁻¹] |
| --- | --- | --- | --- | --- | --- |
| C10U G63U C70U | < 1e-05 | < 1e-05 |  |  |  |
| C11U A36G G38C U69C | < 1e-05 |  |  |  |  |
| G13A A15C G38U A48G A52C | < 1e-05 | < 1e-05 |  |  |  |
| C11G G43U A48U C61G A64G | < 1e-05 | < 1e-05 | < 1e-05 | < 1e-05 |  |
| C11G U55G | < 1e-05 |  |  |  | < 1e-05 |
| C11A U46G A52C | < 1e-05 | < 1e-05 |  |  |  |
| C11A A14U G66U C67A | < 1e-05 |  |  |  |  |
| G13C U31C C71U | 4.32e-05 ± 2e-05 | 0.00114 ± 0.00023 |  |  |  |
| G13C U49G | < 1e-05 |  | < 1e-05 |  | < 1e-05 |
| C11G U57G | < 1e-05 | < 1e-05 |  | < 1e-05 | < 1e-05 |
| A12U A42G U47A C68U | 0.000117 ± 4.6e-05 | 0.00634 ± 0.0021 |  |  |  |
| C11U G32C | < 1e-05 | < 1e-05 | < 1e-05 |  | < 1e-05 |
| A12G A53U C58U | < 1e-05 |  |  |  |  |
| G13A C50G C58A C70U | 6.62e-05 ± 1.6e-05 | 9.7e-05 ± 2.5e-05 |  | 0.000539 ± 6.7e-05 |  |
| C11G G40A U45G | < 1e-05 | < 1e-05 | < 1e-05 | < 1e-05 |  |
| C11U A33U C61G | < 1e-05 |  |  |  |  |
| A12U U30G G51C | < 1e-05 |  | < 1e-05 | < 1e-05 |  |
| A12U C50G | 4.38e-05 ± 1.4e-05 | 0.000147 ± 4.2e-05 |  | 6.46e-05 ± 2.2e-05 | 0.000613 ± 0.00026 |
| C10U G43U U57G | < 1e-05 | < 1e-05 |  |  |  |
| C11G U46A C67G | < 1e-05 | < 1e-05 |  |  |  |
| C10U G40U C58A | < 1e-05 | < 1e-05 |  | < 1e-05 |  |
| G13C G32C U47C | < 1e-05 |  |  |  |  |
| C11G G40A G43A | < 1e-05 | < 1e-05 |  |  |  |
| A12C G40A C58U | < 1e-05 |  |  |  | < 1e-05 |
| G13C G63A | < 1e-05 |  | < 1e-05 | < 1e-05 |  |
| G13C G63U | < 1e-05 |  |  | < 1e-05 |  |
